Measurements published in PMC9852587.

Biological target: His-SYMREM1 (Medicago truncatula)
Test: SEC; analytical gel filtration of fresh recombinant His-SYMREM1, calibrated with standard proteins; apparent molecular weight compared with the calculated size of a dimer

His-SYMREM1 (natural protein)
stoichiometry N: 2
